Test results reported in patent publication US20210269542A1 (POTENZA THERAPEUTICS, published 2021).

T1: human GITR expressed on cells (human, UniProt Q9Y5U5 26-241)
T1 sequence: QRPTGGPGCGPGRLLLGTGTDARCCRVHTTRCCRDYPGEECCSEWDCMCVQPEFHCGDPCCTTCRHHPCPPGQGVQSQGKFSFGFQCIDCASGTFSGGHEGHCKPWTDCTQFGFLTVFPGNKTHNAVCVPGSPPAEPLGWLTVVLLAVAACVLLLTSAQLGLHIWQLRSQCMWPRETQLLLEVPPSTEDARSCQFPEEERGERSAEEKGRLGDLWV

T2: cynomolgus monkey GITR expressed on HT1080 cells (cynomolgus monkey)
T2 chain: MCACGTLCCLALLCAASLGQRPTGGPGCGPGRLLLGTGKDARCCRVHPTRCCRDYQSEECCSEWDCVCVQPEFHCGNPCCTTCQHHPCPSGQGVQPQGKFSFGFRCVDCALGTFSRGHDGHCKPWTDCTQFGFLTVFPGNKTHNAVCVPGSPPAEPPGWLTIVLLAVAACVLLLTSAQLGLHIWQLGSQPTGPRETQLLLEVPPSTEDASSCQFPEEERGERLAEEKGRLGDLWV

T3: human GITR-Fc (human, UniProt Q9Y5U5 26-162)
T3 construct: also called recombinant hGITR; wild type human GITR-Fc
T3 sequence: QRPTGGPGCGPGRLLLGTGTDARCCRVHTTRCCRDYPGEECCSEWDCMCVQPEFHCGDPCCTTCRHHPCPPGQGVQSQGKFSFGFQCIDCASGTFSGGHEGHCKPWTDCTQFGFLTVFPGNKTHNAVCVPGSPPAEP

T4: cyno GITR-Fc (cynomolgus monkey)
T4 construct: also called cGITR; cynomolgus GITR
T4 chain: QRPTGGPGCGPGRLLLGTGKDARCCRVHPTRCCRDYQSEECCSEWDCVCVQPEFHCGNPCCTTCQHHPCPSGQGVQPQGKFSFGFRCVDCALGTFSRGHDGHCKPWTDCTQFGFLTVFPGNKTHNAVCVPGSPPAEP


Columns and labels:
[1] = target: T1, human GITR expressed on cells; experiment: cell-based or functional assay
[2] = target: T2, cynomolgus monkey GITR expressed on …; experiment: cell-based or functional assay
[3] = target: T3, human GITR-Fc; experiment: BLI Octet RED384, ABP on AHQ sensor, 100 nM antigen, single concentration;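 note: association and dissociation each tracked over 180 s, with dissociation run in antigen-free buffer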
Experimental: (§1) The sensors were quenched by dipping into an unrelated human IgG1 antibody to prevent non-specific binding of GITR-Fc antigens to the sensor. The sensors were equilibrated in assay buffer for 30 minutes. Baseline was established by dipping the sensors into assay buffer for 60 seconds. Association was monitored for 180 seconds in 100 nM of recombinant antigens, and dissociation was followed for 180 seconds in buffer alone. KD was determined using the kinetic function of the FORTEBIO® Analysis Software using a 1:1 binding model.

[4] = target: T4, cyno GITR-Fc; experiment: as above
Experimental: as §1

[5] = target: T1, human GITR expressed on cells; experiment: cell-based or functional assay; remark: listed apart in the source
[6] = target: T2, cynomolgus monkey GITR expressed on …; experiment: cell-based or functional assay
[7] = target: T1, human GITR expressed on cells; experiment: cell-based or functional assay; remark: listed apart in the source

| EC50 in human HT1080 (IL-8 induction) [1] [nM] | EC50 in cynomolgus HT1080 (IL-8 induction) [2] [nM] | Kd [3] [nM] | Kd [4] [nM] | Average EC50 in human HT1080 (IL-8 induction) [5] [nM] | Average EC50 in cynomolgus HT1080 (IL-8 induction) [6] [nM] | EC50 in human HT1080 (IL-8 induction), n = 2 [7] [nM] | binding result [4] | Binder |
| --- | --- | --- | --- | --- | --- | --- | --- | --- |
| 3.9 | 21.6 | 3.1 | 8.5 |  |  |  |  | ABP11 (antibody, human IgG1, kappa, N297A, V domains shown) VH: QVQLVQSGAEVKRPGSSVKVSCKASGGTFSSYYISWVRQVPGQGLEWMGGIIPVPGTANYAQKFQGRVTITADESTSTAYMELSSLRSEDTAVYYCARAGGGYARGDHYYGMDVWGQGTTVTVSS VL: not shown |
| 3.5 | 28.4 | 2.8 | 7.9 |  |  |  |  | ABP12 (antibody, human IgG1, kappa, N297A, V domains shown) VH: QVQLVQSGAEVKKPGSSVKVSCKASGGTFSSYYISWVRQAPGQRLEWMGGIIPVPGTANYAQKFQGRVTITADESTSTAYMELSSLRSEDTAVYYCARAGGGYARGDHYYGMDVWGQGTTVTVSS VL: not shown |
| 0.6 | 4.1 | 2.8 | 5.9 |  |  |  |  | ABP14 (antibody, human IgG1, kappa, N297A, V domains shown) VH: QVQLVQSGAEVKKPGSSVKVSCKASGGTFSSYAISWVRQAPGQGLEWMGGIIPISGFTNYAQKFQGRVTITADESTSTAYMELSSLRSEDTAVYYCAREGGHYYSGWPYWGQGTLVTVSS VL: EIVLTQSPATLSLSPGERATLSCRASQSVSSYLAWYQQKPGQAPRLLIYDASNRATGIPARFSGSGSGTDFTLTISSLEPEDFAVYYCQQRLVFPPTFGGGTKVEIKR |
| 0.6 | 3.8 | 2.9 | 5.4 |  |  |  |  | ABP16 (antibody, human IgG1, kappa, N297A, V domains shown) VH: QVQLVQSGAEVKKPGSSVKVSCKASGGTFSSYAISWVRQAPGQGLEWMGGIIPISGFTNYAQKFQGKVTITADESTSTAYMELSSLRSEDTAVYYCAREGGHYYSGWPYWGQGTLVTVSS VL: EIVLTQSPATLSLSPGERATLSCRASQSVSSYLAWYQQKPGQAPRLLIYDASNRATGIPARFSGSGSGTDFTLTISSLEPEDFAVYYCQQRLVFPPTFGGGTKVEIKR |
| 0.6 | 4.5 | 3.3 | 5.2 |  |  |  |  | ABP15 (antibody, human IgG1, kappa, N297A, V domains shown) VH: QVQLVQSGAEVKKPGSSVKVSCKASGGTFSSYAISWVRQAPGQRLEWMGGIIPISGFTNYAQKFQGRVTITADESTSTAYMELSSLRSEDTAVYYCAREGGHYYSGWPYWGQGTLVTVSS VL: EIVLTQSPATLSLSPGERATLSCRASQSVSSYLAWYQQKPGQAPRLLIYDASNRATGIPARFSGSGSGTDFTLTISSLEPEDFAVYYCQQRLVFPPTFGGGTKVEIKR |
| 5.3 | 8.4 | 4.2 | 4.6 |  |  |  |  | ABP17 (antibody, human IgG1, kappa, N297A, V domains shown) VH: QVQLVQSGAEVKKPGSSVKVSCKASGGTFVRYAISWVRQAPGQGLEWMGGIIPIFGEAQYAQRFQGRVTITADESTSTAYMELSSLRSEDTAVYYCAREGYYYGALPYWGQGTLVTVSS VL: EIVLTQSPATLSLSPGERATLSCRASQSVSSYLAWYQQKPGQAPRLLIYDASNRATGIPARFSGSGSGTDFTLTISSLEPEDFAVYYCQQHSVFPPTFGGGTKVEIKR |
| 2.1 | 13.2 | 4 | 8.4 |  |  |  |  | ABP18 (antibody, human IgG1, kappa, N297A, V domains shown) VH: QVQLVQSGAEVKKPGSSVKVSCKASGGTFVRYAISWVRQAPGQGLEWMGGIIPIFGEAQYAQKFRGRATITADESTSTAYMELSSLRSEDTAVYYCAREGYYYGALPYWGQGTLVTVSS VL: EIVLTQSPATLSLSPGERATLSCRASQSVSSYLAWYQQKPGQAPRLLIYDASNRATGIPARFSGSGSGTDFTLTISSLEPEDFAVYYCQQHSVFPPTFGGGTKVEIKR |
| 7.8 | 15 | 5.5 | 6.4 |  |  |  |  | ABP13 (antibody, human IgG1, kappa, N297A, V domains shown) VH: QVQLVQSGAEVKKPGSSVKVSCKASGGTFSRGAISWVRQAPGQGLEWMGGIIPIEGTAYYAQKFQGRVTITADESTGTAYMELSSLRSEDTAVYYCARQSDYGLPRGMDVWGQGTTVTVSS VL: DIQLTQSPSSVSASVGDRVTITCRASQGISSWLAWYQQKPGKAPKLLIYGASSLQSGVPSRFSGSGSGTDFTLTISSLQPEDFATYYCQQASLFPPTFGGGTKVEIKR |
|  |  | 1.4 | 7.5 | 0.58 | 8.8 |  |  | ABP36 (antibody, human IgG1, kappa, N297A, V domains shown, IgG1 N297A, bivalent; also called non-TM ABP corresponding to ABP2) VH: QVQLQESGPGLVKPSQTLSLTCTVSGGSISSGGAVWSWIRQHPGKGLEWIGGIAYSGSTYYNPSLKSRVTISVDTSKNQFSLKLSSVTAADTAVYYCADENVRGYGDYGGHHAFDIWGQGTMVTVSS VL: not shown |
|  |  | 0.7 | 8.2 | 0.44 | 2.3 |  |  | ABP39 (antibody, human IgG1, kappa, N297A, V domains shown, IgG1 N297A, bivalent; also called non-TM ABP corresponding to ABP6) VH: QVQLQESGPGLVKPSETLSLTCAVSGYSISSGAGWGWIRQPPGKGLEWIGLIVHSGSTYYNPSLKSRVTISVDTSKNQFSLKLSSVTAADTAVYYCVLESVRGYGDYGGHHAFDIWGQGTMVTVSS VL: DIQMTQSPSSLSASVGDRVTITCRASQSISSYLNWYQQKPGKAPKLLIYAADSLQSGVPSRFSGSGSGTDFTLTISSLQPEDFATYYCQQEYNTPPTFGGGTKVEIKR |
|  |  | 2.3 | 6.9 | 0.44 | 2 |  |  | ABP41 (antibody, human IgG1, kappa, N297A, V domains shown, IgG1 N297A, bivalent; also called non-TM ABP corresponding to ABP8) VH: QVQLQESGPGLVKPSETLSLTCAVSGYSISSEYMWGWIRQPPGKGLEWIGLIYHSGKTYYNPSLKSRVTISVDTSKNQFSLKLSSVTAADTAVYYCAREADRGYGDYGGHHAFDIWGQGTMVTVSS VL: DIQMTQSPSSLSASVGDRVTITCGASQSISTYLNWYQQKPGKAPKLLIYSASSLESGVPSRFSGSGSGTDFTLTISSLQPEDFATYYCQQEYNTPPSFGGGTKVEIKR |
|  |  | 0.7 | 8.1 | 0.19 | 1.7 |  |  | ABP37 (antibody, human IgG1, kappa, N297A, V domains shown, IgG1 N297A, bivalent; also called non-TM ABP corresponding to ABP3) VH: QVQLQESGPGLVKPSETLSLTCAVSGYSISSGAGWGWIRQPPGKGLEWIGLIVHSGSTYYNPSLKSRVTISVDTSKNQFSLKLSSVTAADTAVYYCVLESVRGYGDYGGHHAFDIWGQGTMVTVSS VL: DIQMTQSPSSLSASVGDRVTITCRASQSISSYLNWYQQKPGKAPKLLIYAASSLKYGVPSRFSGSGSGTDFTLTISSLQPEDFATYYCQQEYNTPPTFGGGTKVEIKR |
|  |  | 14.8 |  |  |  | 0.8 | no binding (tested: 100 nM) | ABP48 (antibody, human IgG1, kappa, N297A, V domains shown, IgG1 N297A, H1H2-optimized, non-TM) VH: QVQLQESGPGLVKPSETLSLTCAVSGYSISSEYMWGWIRQPPGKGLEWIGLIYHSGKTYYNPSLKSRVTISVDTSKNQFSLKLSSVTAADTAVYYCARDSGRGYGDYGGHHAFDIWGQGTMVTVSS VL: not shown |
|  |  | 2.2 | 4.9 | 0.34 | 1.1 |  |  | ABP40 (antibody, human IgG1, kappa, N297A, V domains shown, IgG1 N297A, bivalent; also called non-TM ABP corresponding to ABP7) VH: QVQLQESGPGLVKPSETLSLTCAVSGYSISSEYMWGWIRQPPGKGLEWIGLIYHSGKTYYNPSLKSRVTISVDTSKNQFSLKLSSVTAADTAVYYCAREADRGYGDYGGHHAFDIWGQGTMVTVSS VL: DIQMTQSPSSLSASVGDRVTITCRASQSINSYLNWYQQKPGKAPKLLIYAASSLDSGVPSRFSGSGSGTDFTLTISSLQPEDFATYYCQQEYNTPPTFGGGTKVEIKR |
|  |  | 0.6 | 11.1 | 0.33 | 14.3 |  |  | ABP38 (antibody, human IgG1, kappa, N297A, V domains shown, IgG1 N297A, bivalent; also called non-TM ABP corresponding to ABP4/5) VH: QVQLQESGPGLVKPSETLSLTCAVSGYSISSGAGWGWIRQPPGKGPEWIGLIVHSGSTYYNPSLKSRVTISVDTSKNQFSLKLSSVTAADTAVYYCVLESVRGYGDYGGHHAFDIWGQGTMVTVSS VL: DIQMTQSPSSLSASVGDRVTITCRASKSIDSYLNWYQQKPGKAPKLLIYAASSLQSGVPSRFSGSGSGTDFTLTISSLQPEDFATYYCQQEYNTPPTFGGGTKVEIKR |
|  |  | 1.5 | 5.7 | 0.88 | 2 |  |  | ABP35 (antibody, human IgG1, kappa, N297A, V domains shown, IgG1 N297A, standard bivalent format; also called ABP35 IgG1; non-TM ABP corresponding to ABP1) VH: QVQLQESGPGLVKPSETLSLTCAVSGYSISSGLGWGWIRQPPGKGLEWIGGIYESGSTYYNPSLKSRVTISVDTSKNQFSLKLSSVTAADTAVYYCAHERVRGYGDYGGHHAFDIWGQGTMVTVSS VL: not shown |
